According to patent US20260083749A1, “ANTI-CD123 IMMUNOCONJUGATES FOR THE TREATMENT OF ACUTE MYELOID LEUKEMIA” (ImmunoGen, Inc., priority 2024, published 2026):

Experiments:
AML patients = conditions: published for other AML therapies; cited from earlier work
patients with R/R AML [1] = test: Phase 1/2 trial of pivekimab sunirine monotherapy Q3W: safety (TEAEs, SAEs, DLTs); format: in vivo, human; conditions: N= 3/91; dose levels four- to ten-fold higher per cycle than the RP2D
patients with R/R AML [2] = test: as above; format: in vivo, human
Experimental: (§1) Patients with AML were enrolled into a phase 1/2 clinical trial of pivekimab sunirine. Key inclusion and exclusion criteria were as follows.
(§2) Patients with R/R AML (n=68) were treated with pivekimab sunirine once every 3 weeks (Q3W; on day 1 of a 3-week cycle).
(§3) The trial included a dose-escalation phase and a dose-expansion phase. All patients in both phases received intravenous doses of pivekimab sunirine on day 1 of a 21-day cycle as a <30-minute outpatient infusion. Lyophilized pivekimab sunirine was reconstituted using […] of water for injection. Planned treatment consisted of 2 cycles (6 weeks). Additional cycles, up to 10 total, were administered for patients deriving benefit from this regimen. CNS prophylactic intrathecal chemotherapy was administered. Patients received 8 mg dexamethasone on the day before any pivekimab sunirine dose. Patients also received 25-50 mg diphenhydramine, 325-650 mg acetaminophen or paracetamol, and 8 mg dexamethasone before each pivekimab sunirine infusion.
Following preparation, IMGN632 (or pivekimab sunirine (pvek)) was administered by IV syringe pump. Overall length of infusion was varied depending on dose and patient tolerability. Initially, the study drug was administered at a rate of 0.165 mg/min ([…]); and, after 30 minutes, if well tolerated, the rate was increased to 0.33 mg/min. Subsequent infusions were delivered at the highest tolerated rate. Before and following infusion, the line was flushed with 5% dextrose to ensure delivery of the full dose. Patients were carefully observed during each infusion and vital signs were monitored. Patients remained in the clinic under observation for 4 hours after the first infusion and for at least 1 hour after each subsequent infusion.
(§4) In the dose-escalation phase, patients received doses of pivekimab sunirine starting at 0.015 mg/kg with five escalations (n=38): 0.015 mg/kg (n=3), 0.045 mg/kg (n=9), 0.09 mg/kg (n=12), […] (n=7), 0.3 mg/kg (n=5), and 0.45 mg/kg (n=2).
Based on nonclinical pharmacology, clinical safety, anti-leukemia activity, PK, and PD assessments during the dose-escalation phase, two cohorts were established for the dose expansion phase. • Cohort 1: Patients with relapsed AML received 0.045 mg/kg (escalation dose level 2) Q3W (n=20). • Cohort 2: Patients with relapsed or refractory (to non-intense therapies) AML received 0.09 mg/kg (escalation dose level 3) Q3W (n=10).
Safety was assessed by treatment-emergent adverse events (TEAEs), serious adverse events (SAEs), and dose-limiting toxicities (DLTs). The median duration of treatment in participants who received […] pivekimab sunirine Q3W (n=29) was 9 weeks (range, 3-110).

patients with R/R AML [3] = test: Phase 1/2 trial of pivekimab sunirine monotherapy Q3W: anti-leukemia responses; format: in vivo, human; conditions: for Median time to first CCR (CR/CRh/CRi): range
Excerpt: as §1
• Patients ≥18 years old • R/R AML • Confirmation of CD123 positivity on flow cytometry or immunohistochemistry (IHC). Patients who received prior CD123-targeting agents were allowed as long as the blasts still had detectable CD123 expression. • Eastern Cooperative Oncology Group (ECOG) performance status ≤1. […] Patients with a PCHM were eligible as long as no current therapy was still required for the second malignancy (e.g., MDS, CMML). Patients with a nonhematologic prior malignancy were in remission from the prior malignancy.
as §2, §3, §4
Anti-leukemia responses were assessed per International Working Group (IWG) criteria 2003 (Cheson B D, et al. Revised recommendations of the International Working Group for Diagnosis, Standardization of Response Criteria, Treatment Outcomes, and Reporting Standards for Therapeutic Trials in Acute Myeloid Leukemia. J Clin Oncol 2003; 21(24): 4642-9) and European LeukemiaNet (ELN) response criteria 2017 (Dohner H, et al. Diagnosis and management of AML in adults: 2017 ELN recommendations from an international expert panel. Blood 2017; 129(4): 424-47) as composite complete remission (CCR) rate (defined as CR without minimal residual disease [CRMRD−]+CR+CRh+CR with incomplete recovery CRi]). Overall response rate (ORR) was defined as CRMRD−+CR+CRh+CRi+morphologic leukemia-free state (MLFS) +partial response (PR). Duration of overall response (DOR) was also evaluated.
Response assessments were performed in bone marrow aspirates (BMAs) for differential assessments taken on Cycle 1, Day 21±7 days. Subsequent BMAs were performed approximately every 1 to 2 cycles as clinically indicated, and at the 30-Day Follow-up visit. Data was also collected in the event BMAs were performed more frequently. No repeat bone marrow was necessary if lack of response or PD could be unequivocally diagnosed from peripheral blood tests or if the bone marrow test was considered noncontributory at any time point.

AML xenografts = conditions: background statement; cited from earlier work
[4] = tested on: normal marrow progenitors; conditions: background statement; cited from earlier work
[5] = RP2D, prior intensive therapy, n= 5/22
[6] = RP2D, prior venetoclax exposure, n= 2/14

Molecule: N#Cc1ccnc(N2C(=O)CC[C@H]2C(=O)N(c2cncc(F)c2)[C@H](C(=O)NC2CC(F)(F)C2)c2ccccc2Cl)c1 [ivosidenib]
- Incidence of febrile neutropenia, published (AML patients): 29%

Molecule: CCc1nc(C(N)=O)c(Nc2ccc(N3CCC(N4CCN(C)CC4)CC3)c(OC)c2)nc1NC1CCOCC1 [gilteritinib]
- Incidence of febrile neutropenia, published (AML patients): 46%

B1: pivekimab sunirine (conjugate, chains of the INN, looked up)
VH: QVQLVQSGAEVKKPGASVKVSCKASGYIFTSSIMHWVRQAPGQGLEWIGYIKPYNDGTKYNEKFKGRATLTSDRSTSTAYMELSSLRSEDTAVYYCAREGGNDYYDTMDYWGQGTLVTVSS
VL: EIQMTQSPSSLSASVGDRVTITCRASQDINSYLSWFQQKPGKAPKTLIYRVNRLVDGVPSRFSGSGSGNDYTLTISSLQPEDFATYYCLQYDAFPYTFGQGTKVEIK
modifications: sunirine payload (DNA-alkylating drug conjugate)
- Reversible VOD (patients with R/R AML [1]): 3%
- Prolonged neutropenia (grade 3) considered related to pivekimab sunirine (DLT) (patients with R/R AML [2]; 0.3 mg/kg after 2 cycles): one
- 30-day mortality rate (patients with R/R AML [2]; 2 deaths due to disease progression): 7%
- Maximum tolerated dose (MTD) (patients with R/R AML [2]; 30-fold dose escalation, 0.015-[…] Q3W): no maximum tolerated dose (MTD) defined
- Incidence of febrile neutropenia (patients with R/R AML [2]; all schedule A participants): 35%
- Reversible VOD possibly related to pivekimab sunirine (DLT) (patients with R/R AML [2]; grade 3, 0.18 mg/kg after 2 cycles, grade 4, […] during cycle 1): two
- Grade 4 IRRs (patients with R/R AML [2]; in vivo): no grade 4 IRRs occurred
- IRRs (patients with R/R AML [2]; mostly tachycardia and/or chills with the first dose, primarily grade 1-2): 31%
- Participants who experienced DLTs (patients with R/R AML [2]; of the 68 participants, all doses): Three
- TEAEs leading to treatment discontinuation (patients with R/R AML [2]; seven of 68 participants): 10%
- Best overall response CR, % (patients with R/R AML [3]; All Participants (n = 68)): (3) %
- Best overall response CR, No. (patients with R/R AML [3]; All Participants (n = 68)): 2 No.
- Best overall response CRh, % (patients with R/R AML [3]; All Participants (n = 68)): (3) %
- Best overall response CRh, No. (patients with R/R AML [3]; All Participants (n = 68)): 2 No.
- Best overall response CRi, % (patients with R/R AML [3]; All Participants (n = 68)): (6) %
- Best overall response CRi, No. (patients with R/R AML [3]; All Participants (n = 68)): 4 No.
- Best overall response MLFS, % (patients with R/R AML [3]; All Participants (n = 68)): (3) %
- Best overall response MLFS, No. (patients with R/R AML [3]; All Participants (n = 68)): 2 No.
- Best overall response PD, % (patients with R/R AML [3]; All Participants (n = 68)): (24) %
- Best overall response PD, No. (patients with R/R AML [3]; All Participants (n = 68)): 16 No.
- Best overall response PR, % (patients with R/R AML [3]; All Participants (n = 68)): (2) %
- Best overall response PR, No. (patients with R/R AML [3]; All Participants (n = 68)): 1 No.
- Best overall response SD, % (patients with R/R AML [3]; All Participants (n = 68)): (52) %
- Best overall response SD, No. (patients with R/R AML [3]; All Participants (n = 68)): 35 No.
- CCR rate (CR + CRh + CRi), % (patients with R/R AML [3]; All Participants (n = 68)): (12) %
- CCR rate (CR + CRh + CRi), No. (patients with R/R AML [3]; All Participants (n = 68)): 8 No.
- Median duration of CR (patients with R/R AML [3]; All Participants (n = 68)): 2.2 mo
- Median duration of remission (patients with R/R AML [3]; All Participants (n = 68)): 2.0 mo
- ORR (CR + CRh + CRi + MLFS + PR), No. (patients with R/R AML [3]; All Participants (n = 68)): 11 No.
- Anti-leukemia activity versus CD123 expression (patients with R/R AML [3]; FIG. 3): anti-leukemia activity regardless of CD123 expression
- ORR (patients with R/R AML [3]; RP2D, de novo (nonsecondary) AML, n= 6/18): 33%
- CCR (patients with R/R AML [3]; RP2D, prior HSCT, n= 3/9): 33%
- ORR (patients with R/R AML [3]; RP2D, prior HSCT, n= 3/9): 33%
- CCR (patients with R/R AML [3]; [5]): 23%
- ORR (patients with R/R AML [3]; [5]): 23%
- CCR (patients with R/R AML [3]; [6]): 14%
- ORR (patients with R/R AML [3]; [6]): 14%
- CCR (patients with R/R AML [3]; RP2D, two prior lines, n= 3/15): 20%
- ORR (patients with R/R AML [3]; RP2D, two prior lines, n= 4/15): 27%
- CCR (patients with R/R AML [3]; RP2D, venetoclax-naive, n= 3/15): 20%
- ORR (patients with R/R AML [3]; RP2D, venetoclax-naive, n= 4/15): 27%
- Median duration of CCR (CR/CRh/CRi) (patients with R/R AML [3]; RP2D, 95% CI 1.64-not estimable): 2.27 months
- Median time to first CCR (CR/CRh/CRi) (patients with R/R AML [3]; RP2D, 0.79-3.61): 2.04 months
- Participants with decrease in bone marrow blasts (patients with R/R AML [3]; all dose levels and cohorts, n= 31/68): 46%
- Median duration of CCR (CR/CRh/CRi) (patients with R/R AML [3]; all schedule A doses, 95% CI 1.02-3.55): 2.22 months
- Median time to first CCR (CR/CRh/CRi) (patients with R/R AML [3]; all schedule A doses, 0.46-4.37): 1.76 months
- Participants with >100% increase in BM blasts (patients with R/R AML [3]; cohort 1 and cohort 2 R/R AML, FIG. 1): 11 participants
- Individual responses in participants with FLT3-ITD mutations (patients with R/R AML [3]; in vivo): ¼
- Individual responses in participants with IDH1 mutations (patients with R/R AML [3]; in vivo): ⅓
- Antitumor activity in AML xenografts (AML xenografts): potent antitumor activity
- Toxicity in normal marrow progenitors versus other DNA-targeting payloads [4]: less toxicity in normal marrow progenitors
